Measurements: US9328139B2, “Cyclin based inhibitors of CDK2 and CDK4” (University of South Carolina, priority 2010, dated 2016)
Like-named read-outs stand apart in the source and are kept apart here.

Legend:
[1] = target: T1, CDK4/Cyclin D1 (Homo sapiens, UniProt P24385); experiment: CDK4/Cyclin D1 in vitro kinase assay (32P filter capture, GST-Rb substrate); format: biochemical
T1 construct: performed using full-length recombinant CDK2/cyclin A2 and CDK4/Cyclin D1; GST (N); purchased SignalChem, Richmond, Canada; host or cells: Sf9 insect cells (baculovirus)
Method: CDK2/Cyclin A2 and CDK4/Cyclin D1 kinase assays were performed using full-length recombinant CDK2/cyclin A2 and CDK4/Cyclin D1 co-expressed by baculovirus in Sf9 insect cells using an N-terminal GST tag on both proteins. […] The [^32P]-ATP Assay cocktail was prepared in a designated radioactive working area by adding 150 ul of 10 mM ATP stock solution, 100 ul[^32P]-ATP (1 mCi/100 ul), 5.75 ml of kinase assay buffer I. 10 mM ATP Stock Solution was prepared by dissolving 55 mg of ATP in 10 ml of kinase assay buffer I. Store 200 μl aliquots at −20° C. […] The reaction was initiated by the addition of 5 μl [^32P]-ATP assay cocktail bringing the final volume up to 25 μl and incubating the mixture in a water bath at 30° C. for 15 minutes. After the incubation period, the reaction was terminated by spotting 20 μl of the reaction mixture onto individual pre-cut strips of phophocellulose P81 paper. The pre-cut P81 strip was air-dried and sequentially washed in a 1% phosphoric acid solution with constant gentle stirring. Radioactivity on the P81 paper was counted in the presence of scintillation fluid on a scintillation counter. […]
Activities of peptides previously tested against CDK2A and CDK4D were determined using this assay format.

[2] = system: retinoblastoma (Rb)-positive tumor cells; details: cited from earlier work

T1 sequence (P24385 whole entry): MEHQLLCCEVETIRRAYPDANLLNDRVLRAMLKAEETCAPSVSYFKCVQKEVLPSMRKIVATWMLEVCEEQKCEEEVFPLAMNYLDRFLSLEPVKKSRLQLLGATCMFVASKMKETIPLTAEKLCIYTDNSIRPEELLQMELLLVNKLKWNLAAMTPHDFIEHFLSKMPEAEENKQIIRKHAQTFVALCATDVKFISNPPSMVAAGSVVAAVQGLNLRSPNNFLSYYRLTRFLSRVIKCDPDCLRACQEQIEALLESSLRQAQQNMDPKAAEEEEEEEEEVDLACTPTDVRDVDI
T1 sequence (P11802 whole entry partner): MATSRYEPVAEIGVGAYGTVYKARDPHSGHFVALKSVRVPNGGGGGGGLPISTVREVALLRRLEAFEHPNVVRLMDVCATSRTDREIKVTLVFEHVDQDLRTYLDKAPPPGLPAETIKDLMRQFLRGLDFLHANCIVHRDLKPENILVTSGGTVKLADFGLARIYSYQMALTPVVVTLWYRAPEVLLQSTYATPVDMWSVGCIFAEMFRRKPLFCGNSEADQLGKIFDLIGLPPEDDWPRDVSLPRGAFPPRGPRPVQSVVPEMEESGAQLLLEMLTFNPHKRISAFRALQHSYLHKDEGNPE

Row | activity in the CDK4/cyclin D1 kinase assay (in words) [1] | activity in the CDK4/cyclin D1 kinase assay (in words) ([1]; listed as p21 X8 derivative) | Molecule | cell cycle effect [2]
1 | no observable activity | loses all activity | HAKRRLIX8: HAKRRLIX with X8 = 4-pyridylalanine, SEQ ID NO: 24 | 
2 |  |  | CC(=O)c1c(C)c2cnc(Nc3ccc(N4CCNCC4)cn3)nc2n(C2CCCC2)c1=O [PD0332991] | G1 arrest
